Experimental data from patent US12139520B2 (priority 2020, dated 2024).
Numbered stars: 1 amine (or outer) side, 2 acyl side, 3 side chain; on linkers, the order of the positions; unused ones are H or OH. Bridge positions count the residues as written; N and C are the ends. Square brackets hold non-standard residues; d marks the D form. Side chains are listed from the residue outwards. Ends that are not written are not given here. * marks the point of attachment. C20 diacid = O=C(O)CCCCCCCCCCCCCCCCCCC(=O)*; γGlu = O=C(O)[C@H](CCC(=O)[*:2])N[*:1]; Hyp = O=C(O)[C@@H]1C[C@@H](O)CN1; Cit = NC(=O)NCCC[C@H](N)C(=O)O; AEEA = NCCOCCOCC(=O)O

T1: hAMY3R (human, UniProt P30988)
T1 sequence 1: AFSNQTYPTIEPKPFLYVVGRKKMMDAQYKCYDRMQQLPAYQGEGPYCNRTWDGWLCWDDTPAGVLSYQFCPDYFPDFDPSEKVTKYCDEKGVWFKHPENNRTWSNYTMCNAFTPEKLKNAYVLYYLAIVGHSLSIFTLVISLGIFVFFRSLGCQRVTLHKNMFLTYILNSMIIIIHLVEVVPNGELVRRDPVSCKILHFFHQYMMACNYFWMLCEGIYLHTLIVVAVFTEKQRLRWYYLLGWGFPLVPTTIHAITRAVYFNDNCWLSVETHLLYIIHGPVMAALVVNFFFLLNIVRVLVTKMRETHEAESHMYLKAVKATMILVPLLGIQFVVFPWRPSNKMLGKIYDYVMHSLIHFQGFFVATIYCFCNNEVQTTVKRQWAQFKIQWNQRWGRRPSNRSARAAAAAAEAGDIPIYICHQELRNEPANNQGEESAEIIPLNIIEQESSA
T1 sequence 2: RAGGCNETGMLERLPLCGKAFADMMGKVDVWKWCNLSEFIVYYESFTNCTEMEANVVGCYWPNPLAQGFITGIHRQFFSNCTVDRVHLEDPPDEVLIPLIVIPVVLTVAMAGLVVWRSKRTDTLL


Assays:
hAMY3R = target: T1, hAMY3R; assay: cell-based or functional assay
hAM1R = hAM1R (human, UniProt Q16602); assay: cell-based or functional assay

Row | Binder | hAMY3R EC50 (cAMP) (hAMY3R) | hAM1R EC50 (cAMP) (hAM1R)
1 | GCRWGTCTVQRLAHQIYQFTDKDKDNVAPRSKISPQT[Hyp]-NH2 (disulfide 2-7 (inferred); ends not checked) [SEQ ID NO: 150] | 0.04 nM | > 5000 nM
2 | GCRTGTCTVQRLAHQIYQFTDKDKDNVAPRSKIGPNG[Hyp]-NH2 (disulfide 2-7 (inferred); ends not checked) [SEQ ID NO: 157] | 0.047 nM | 2980 nM
3 | GCRTGTCTVQRLAHQIYQFTDKDKDNVAPRTKVGPQG[Hyp]-NH2 (disulfide 2-7 (inferred); ends not checked) [SEQ ID NO: 143] | 0.038 nM | 2980 nM
4 | {C20 diacid-γGlu}-KCNTATCTVQ[Cit]LAEQIAQFTDKDKDNVAPPTNVGSNG[Hyp]-NH2 (disulfide 2-7 (inferred); ends not checked) [SEQ ID NO: 153] | 0.041 nM | > 5000 nM
5 | {C20 diacid-γGlu}-KCNTATCTVQRLAEQIAQFTDKDKDPVAPPTNVGSNG[Hyp]-NH2 (disulfide 2-7 (inferred); ends not checked) [SEQ ID NO: 144] | 0.038 nM | > 5000 nM
6 | KCNTATCTVQRLAEQIK([AEEA-AEEA-γGlu-C20 diacid])QFTDKDKDNVAPPTNVGSNG[Hyp]-NH2 (disulfide 2-7 (inferred); ends not checked) [SEQ ID NO: 136] | 0.033 nM | > 5000 nM
7 | GCRFGTCTVQRLAHQIYQFTDKDKDNVAPRSNVGPQG[Hyp]-NH2 (disulfide 2-7 (inferred); ends not checked) [SEQ ID NO: 135] | 0.033 nM | 68.4 nM
8 | KCNFATCTVQRLAHQIYQFTDKDKDNVAPRTEVGSNG[Hyp]-NH2 (disulfide 2-7 (inferred); ends not checked) [SEQ ID NO: 17] | 0.008 nM | 295 nM
9 | GCRTGTCTVQRLAHQIYQFTDKDKDNVAPRTNVSPNG[Hyp]-NH2 (disulfide 2-7 (inferred); ends not checked) [SEQ ID NO: 163] | 0.053 nM | 2980 nM
10 | GCRTGTCTVQRLAHQIYQFTDKDKDNVAPRTKIGPQG[Hyp]-NH2 (disulfide 2-7 (inferred); ends not checked) [SEQ ID NO: 161] | 0.051 nM | 2980 nM
11 | GCRFGTCTVQRLAHQIYQFTDKDKDNVAPRTKISPQG[Hyp]-NH2 (disulfide 2-7 (inferred); ends not checked) [SEQ ID NO: 146] | 0.04 nM | 2980 nM
12 | KCNTATCTVQRLAHQIAQFTDKDKDNVAPPTNVGSNG[Hyp]-NH2 (disulfide 2-7 (inferred); ends not checked) [SEQ ID NO: 14] | 0.007 nM | > 5000 nM
13 | GCRIGTCTVQRLAHQIYQFTDKFKDNVAPRSKISPQT[Hyp]-NH2 (disulfide 2-7 (inferred); ends not checked) [SEQ ID NO: 147] | 0.04 nM | 3110 nM
14 | GCRTGTCTVQRLAHQIYQFTDKDKDNVAPRSNVGPQGY [SEQ ID NO: 138] | 0.035 nM | 2980 nM
15 | GCRFGTCTVQRLAHQIYQFTDKDKDNVAPRTKVSPQGY [SEQ ID NO: 155] | 0.045 nM | 116 nM
16 | GCRTGTCTVQRLAHQIYQFTDKDKDNVAPRTKVGPQGY [SEQ ID NO: 156] | 0.047 nM | 2980 nM
17 | GCRTGTCTVQRLAHQIYQFTDKDKDNVAPRTNIGPQGY [SEQ ID NO: 160] | 0.05 nM | 2980 nM
18 | GCRFGTCTVQRLAHQIYQFTDKDKDNVAPRTNISPQGY [SEQ ID NO: 140] | 0.036 nM | 31.4 nM

Row | Binder | hAMY3R EC50 (cAMP) (hAMY3R) | hAM1R EC50 (cAMP) (hAM1R)
19 | GCRFGTCTVQRLAHQIYQFTDKDKDNVAPRSKISPQGY [SEQ ID NO: 154] | 0.042 nM | 2980 nM
20 | GCRTGTCTVQRLAHQIYQFTDKDKDNVAPRTNIGPNGY [SEQ ID NO: 142] | 0.036 nM | 2980 nM
21 | GCRFGTCTVQRLAHQIYQFTDKDKDNVAPRTNISPQG[Hyp]-NH2 (disulfide 2-7 (inferred); ends not checked) [SEQ ID NO: 141] | 0.036 nM | 258 nM
22 | GCRTGTCTVQRLAHQIYQFTDKDKDNVAPRSNIGPQG[Hyp]-NH2 (disulfide 2-7 (inferred); ends not checked) [SEQ ID NO: 165] | 0.054 nM | 2980 nM
23 | GCRFGTCTVQRLAHQIYQFTDKDKDNVAPRSNISPQG[Hyp]-NH2 (disulfide 2-7 (inferred); ends not checked) [SEQ ID NO: 158] | 0.048 nM | 2980 nM
24 | GCRTGTCTVQRLAHQIYQFTDKDKDNVAPRSNIGPNG[Hyp]-NH2 (disulfide 2-7 (inferred); ends not checked) [SEQ ID NO: 151] | 0.041 nM | 44.9 nM
25 | KCNTATCATQRLANFLVHSSNNFGAILSSTKIGSNGY [SEQ ID NO: 148] | 0.04 nM | > 5000 nM
26 | KCNTATCATQRLANFLVHSSNNFGAILPSTKIGPNGY [SEQ ID NO: 162] | 0.051 nM | > 5000 nM
27 | KCNTATCATQRLANFLVHSSNNFGAILPSTKVGPNGY [SEQ ID NO: 149] | 0.04 nM | > 5000 nM
28 | KCNTATCATQRLANFLVHSSNNFGAILSSTNVGSNTY (ligand, disulfide 2-7) [hAMY1-37] | 0.01 nM | > 5000 nM
29 | GCRFGTCTVQRLANFLYQFTDKDKDNVAPRTNVGPQGY [SEQ ID NO: 16] | 0.008 nM | 125 nM
30 | GCRFGTCTVQRLAHQIYQFTDKDKDNVAPRSKVGPQG[Hyp]-NH2 (disulfide 2-7 (inferred); ends not checked) [SEQ ID NO: 152] | 0.041 nM | 213 nM
31 | GCRFGTCTVQRLAHQIYQFTDKDKDNVAPRSNVSPQG[Hyp]-NH2 (disulfide 2-7 (inferred); ends not checked) [SEQ ID NO: 145] | 0.039 nM | 2980 nM
32 | KCNTSTCTVARLADQITQFSDKDKANVSPPTEVGPNS[Hyp]-NH2 (disulfide 2-7 (inferred); ends not checked) [SEQ ID NO: 15] | 0.007 nM | > 5000 nM
33 | GCRFGTCTVQRLAHQIYQFTDKDKDNVAPRTKISPQGY [SEQ ID NO: 164] | 0.054 nM | 106 nM
34 | {C20 diacid-γGlu}-KCNTATCTVARLAHQINQFTDKDKDPVAPPTNVGSNG[Hyp]-NH2 (disulfide 2-7 (inferred); ends not checked) [SEQ ID NO: 137] | 0.034 nM | > 5000 nM
35 | GCRTGTCTVQRLAHQIYQFTDKDKDNVAPRSKVGPNG[Hyp]-NH2 (disulfide 2-7 (inferred); ends not checked) [SEQ ID NO: 139] | 0.035 nM | 2980 nM
36 | {C20 diacid-γGlu}-KCNTATCTVIRLAHQIYQFTDKDKDNVAPPTNVGSNG[Hyp]-NH2 (disulfide 2-7 (inferred); ends not checked) [SEQ ID NO: 159] | 0.048 nM | > 5000 nM
